# Measurements reported in patent US20110086770A1 (ANAPHORE, published 2011).
# Changes are numbered by the printed parent chain.
# T1: recombinant human IL-23R/Fc chimera (R&D Systems) (human, UniProt Q5VWK5 24-353)
# T1 construct: bought; also called human IL-23R/Fc fusion protein; rhIL23RFc
# T1 sequence (looked up): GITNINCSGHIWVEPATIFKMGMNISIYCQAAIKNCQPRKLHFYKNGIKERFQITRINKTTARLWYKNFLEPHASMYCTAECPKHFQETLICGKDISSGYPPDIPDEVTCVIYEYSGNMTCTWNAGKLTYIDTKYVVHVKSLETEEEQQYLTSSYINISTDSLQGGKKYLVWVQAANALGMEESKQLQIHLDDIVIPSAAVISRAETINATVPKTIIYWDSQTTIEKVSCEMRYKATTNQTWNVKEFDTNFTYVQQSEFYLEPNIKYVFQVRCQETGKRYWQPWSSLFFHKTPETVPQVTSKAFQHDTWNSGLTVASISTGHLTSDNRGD
# B1: 101-51-1A3 ATRIMER (designed binder)
# chain: EPPTQKPKKIVNAKKDVVNTKMFEELKSRLDTLAQEVALLKEQQALQTVCLKGTKVHMKCFLAFTQTKTFHEASEDCISRGGTLSTPQTGSENDALYEYLRQSVGNEAEIWLGLNGSALTNTWVDMTGARIAYKNWEHQPVYQPGGGWGVFGENCAVLSGAANGKWFDKRCRDQLPYICQFGIV
# modifications: ATRIMER is a homotrimer; one protomer is given.
# notes: not shown: C-terminal purification tag: Myc/His6 (pANA4) or HA-StrepII (pANA10)
# B2: 105-08-1G2 ATRIMER (designed binder)
# chain: B1 chain with A118S, L119K, H138T, Q139E, P140I, V141T, Y142A, G145D, V150Y
# notes: not shown: C-terminal tag: His/Myc (pANA4) or HA-StrepII (pANA10)
# B3: 105-08-2C8 ATRIMER (designed binder)
# chain: B1 chain with A118W, N121D, H138T, Q139E, P140I, V141T, Y142A, G145D, V150Y
# B4: 105-08-1D2 ATRIMER (designed binder)
# chain: EPPTQKPKKIVNAKKDVVNTKMFEELKSRLDTLAQEVALLKEQQALQTVCLKGTKVHMKCFLAFTQTKTFHEASEDCISRGGTLSTPQTGSENDALYEYLRQSVGNEAEIWLGLNGSPVTDTWVDMTGARIAYKNWETEITAQPDGGFGYFGENCAVLSGAANGKWFDKRCRDQLPYICQFGIV
# modifications: Forms a homotrimer (ATRIMER) through the tetranectin coiled coil; one protomer is given.
# notes: not shown: C-terminal tag
# B5: 105-08-1C3 ATRIMER (designed binder)
# chain: B4 chain with P118Q, V119L, F148W
# B6: 101-54-4B3 ATRIMER (designed binder)
# chain: B1 chain with H138L, Q139P, V141P, Y142G, Q143H, G145Q, W148F
# B7: 105-08-2C11 ATRIMER (designed binder)
# chain: B4 chain with P118L, V119K, D121Q, F148W
# B8: 105-08-1B10 ATRIMER (designed binder)
# chain: B4 chain with P118R, V119H
# B9: 101-54-4A12 ATRIMER (designed binder)
# chain: EPPTQKPKKIVNAKKDVVNTKMFEELKSRLDTLAQEVALLKEQQALQTVCLKGTKVHMKCFLAFTQTKTFHEASEDCISRGGTLSTPQTGSENDALYEYLRQSVGNEAEIWLGLNGSRRSGVWVDMTGARIAYKNWEPPGPAHPQGGFGVFGENCAVLSGAANGKWFDKRCRDQLPYICQFGIV
# B10: 105-08-1B1 ATRIMER (designed binder)
# chain: B4 chain with V119R, D121Q
# modifications: Homotrimer of the given chain (ATRIMER complex).
# B11: 105-08-2G6 ATRIMER (designed binder)
# chain: B4 chain with P118L, V119L, F148W
# notes: as for B2
# B12: 105-08-1C6 ATRIMER (designed binder)
# chain: B4 chain with P118A, V119L
# B13: 101-51-1A10 ATRIMER (designed binder)
# chain: B1 chain with Q139P, P140L, V141P, Y142P, G145S, W148F, V150Y
# modifications: ATRIMER is a homotrimer; one protomer is given.
# notes: as for B1
# B14: 105-08-1D3 ATRIMER (designed binder)
# chain: B4 chain with P118K, D121E
# notes: as for B1
# B15: 105-08-2G4 ATRIMER (designed binder)
# chain: B4 chain with V119R, D121G
# notes: as for B2
# B16: 105-08-1A10 ATRIMER (designed binder)
# chain: B4 chain with P118S, V119I, F148W
# modifications: Forms a homotrimer (ATRIMER) through the tetranectin coiled coil; one protomer is given.
# notes: not shown: C-terminal tag
# B17: 105-08-1C9 ATRIMER (designed binder)
# chain: B4 chain with P118T, V119L
# notes: as for B2
# B18: 105-08-1C4 ATRIMER (designed binder)
# chain: B4 chain with P118T, V119L, F148W
# modifications: Homotrimer of the given chain (ATRIMER complex).
# B19: 105-08-2C6 ATRIMER (designed binder)
# chain: B4 chain with P118Q, V119R, F148W
# B20: 105-08-2C12 ATRIMER (designed binder)
# chain: B4 chain with P118Q, V119R
# modifications: Homotrimer of the given chain (ATRIMER complex).
# B21: 105-08-1A8 ATRIMER (designed binder)
# chain: B4 chain with V119R, D121N, Y150V
# notes: not shown: C-terminal tag: Myc/His6 (pANA4) or HA-StrepII (pANA10); A Ser left at the ompA junction may also sit at the N-terminus
# B22: 105-08-1C11 ATRIMER (designed binder)
# chain: B4 chain with P118S, V119R
# notes: as for B2
# B23: 105-08-1D12 ATRIMER (designed binder)
# chain: B4 chain with P118V, V119L
# B24: 105-08-1A7 ATRIMER (designed binder)
# chain: B4 chain with P118V, V119R, D121N
# modifications: Homotrimer of the given chain (ATRIMER complex).
# B25: 101-51-1A6 ATRIMER (designed binder)
# chain: B1 chain with H138N, Q139N, P140L, V141S, Y142A, G145R, W148F, V150Y
# modifications: ATRIMER is a homotrimer; one protomer is given.
# notes: as for B1
# B26: 105-08-1D1 ATRIMER (designed binder)
# chain: B4 chain with P118A, V119L, F148W
# B27: 105-08-1G9 ATRIMER (designed binder)
# chain: B4 chain with V119K
# notes: as for B2
# B28: 105-08-1C10 ATRIMER (designed binder)
# chain: B4 chain with P118S, D121N, F148W
# B29: 105-08-2F6 ATRIMER (designed binder)
# chain: B4 chain with P118A, V119Y, D121N
# notes: as for B2
# B30: 105-08-1G12 ATRIMER (designed binder)
# chain: B4 chain with P118L, V119R, D121G, F148W
# B31: 105-08-1D10 ATRIMER (designed binder)
# chain: B4 chain with P118A, V119R, D121G, F148W
# notes: as for B2
# B32: 105-08-1C2 ATRIMER (designed binder)
# chain: B4 chain with P118R, V119A
# modifications: Forms a homotrimer (ATRIMER) through the tetranectin coiled coil; one protomer is given.
# notes: not shown: C-terminal tag
# B33: 105-08-1A4 ATRIMER (designed binder)
# chain: B4 chain with P118A, D121N
# B34: 105-08-2A1 ATRIMER (designed binder)
# chain: B4 chain with P118M, V119R, F148W
# B35: 105-08-2C10 ATRIMER (designed binder)
# chain: B4 chain with P118L, V119L, Y150V
# notes: as for B1
# B36: 101-54-4B6 ATRIMER (designed binder)
# chain: B9 chain with R118A, R119L, S120T, G121N, V122T, A142H, Q145M
# B37: 105-08-2B3 ATRIMER (designed binder)
# chain: B4 chain with P118A, V119I, D121N, F148W
# B38: 105-08-2C4 ATRIMER (designed binder)
# chain: B4 chain with P118L, V119L, D121N
# modifications: Homotrimer of the given chain (ATRIMER complex).
# B39: 101-80-5E8 ATRIMER (designed binder)
# chain: B1 chain with H138P, Q139P, P140E, V141P, Y142L, Q143H, G145M, W148F
# B40: 105-08-2G1 ATRIMER (designed binder)
# chain: B4 chain with V119K, D121H
# B41: 105-08-2C1 ATRIMER (designed binder)
# chain: B4 chain with P118S, V119L, F148W
# B42: 101-51-1A8 ATRIMER (designed binder)
# chain: B1 chain with H138R, Q139T, V141P, Y142W, G145E, W148F, V150Y
# modifications: ATRIMER is a homotrimer; one protomer is given.
# notes: as for B1
# B43: 105-08-2C9 ATRIMER (designed binder)
# chain: B4 chain with P118T, V119L, D121N, F148W
# notes: as for B2
# B44: 105-08-2E12 ATRIMER (designed binder)
# chain: B4 chain with P118G, V119L, F148W
# B45: 105-08-2G2 ATRIMER (designed binder)
# chain: B4 chain with P118A, V119I, F148W
# B46: 105-08-2D2 ATRIMER (designed binder)
# chain: B4 chain with P118A, V119R, D121G
# modifications: Forms a homotrimer (ATRIMER) through the tetranectin coiled coil; one protomer is given.
# notes: not shown: C-terminal tag
# B47: 105-08-1B7 ATRIMER (designed binder)
# chain: B4 chain with V119R
# modifications: Forms a homotrimer (ATRIMER) through the tetranectin coiled coil; one protomer is given.
# notes: not shown: C-terminal tag
# Molecular target: T1, recombinant human IL-23R/Fc chimera …
# Experiment: competition ELISA against IL-23
# Experimental: Assays were performed generally as follows. Individual wells in Immulon HB2 plates were incubated overnight at 4° C. with 100 μL PBS containing 100 ng of an anti-human IgG Fc (R&D MAB 110 clone 97924). Plates were washed five times with PBS/0.05% Tween 20, and wells were incubated for 1.5 h at RT with 100 μL each of PBS containing 50 ng of recombinant human IL-23R/Fc. […] Competitor was included at a final concentration of 1 μg/mL. After incubation, plates were washed as described and wells were incubated for 40 min at RT with 100 μL each of PBS containing a 1:5000 dilution of streptavidin-HRP conjugate (Pierce catalog no. 21130). After washing, wells were incubated with 100 μL each of TMB (BioFX Lab catalog no. TMBH-1000-0) for up to 30 min at RT. Reactions were stopped with an equal volume of 0.2 M sulfuric acid.
row,Binder,Ratio IC50 to 056-53.H4E IC50 [ratio]
1,B1,1.6
2,B2,5.5
3,B3,8.4
4,B4,4.3
5,B5,3.6
6,B6,1
7,B7,9.1
8,B8,4.7
9,B9,1.1
10,B10,3.3
11,B11,5.2
12,B12,2
13,B13,8.7
14,B14,0.4
15,B15,2.5
16,B16,4.3
17,B17,7.4
18,B18,3.3
19,B19,3.6
20,B20,3.3
21,B21,1.6
22,B22,2.8
23,B23,4.6
24,B24,2.9

row,Binder,Ratio IC50 to 056-53.H4E IC50 [ratio]
1,B25,2.6
2,B26,3.6
3,B27,2.4
4,B28,5
5,B29,2.4
6,B30,13.2
7,B31,5.5
8,B32,4.1
9,B33,1.6
10,B34,5
11,B35,0.9
12,B36,0.3
13,B37,3.4
14,B38,2.9
15,B39,0.6
16,B40,2.2
17,B41,3.6
18,B42,3.7
19,B43,5.3
20,B44,9.1
21,B45,3.8
22,B46,4.1
23,B47,4.1
